Patent US20190225658A1

Key:
Kir3.1/Kir3.4 channel [1] = assay: cell-based or functional assay
Kir3.1/Kir3.4 channel [2] = assay: flow cytometry, HEK cells stably transfected with Kir3.1/3.4, labeled with 10 nM; unlabeled cells 162 A.U.
Kir3.1/Kir3.4 channel [3] = assay: flow cytometry dose response curve of binding on HEK cells stably transfected with Kir3.1/3.4

Chain of Kir3.1/Kir3.4 channel (P48549 whole entry, chain 1 of 2): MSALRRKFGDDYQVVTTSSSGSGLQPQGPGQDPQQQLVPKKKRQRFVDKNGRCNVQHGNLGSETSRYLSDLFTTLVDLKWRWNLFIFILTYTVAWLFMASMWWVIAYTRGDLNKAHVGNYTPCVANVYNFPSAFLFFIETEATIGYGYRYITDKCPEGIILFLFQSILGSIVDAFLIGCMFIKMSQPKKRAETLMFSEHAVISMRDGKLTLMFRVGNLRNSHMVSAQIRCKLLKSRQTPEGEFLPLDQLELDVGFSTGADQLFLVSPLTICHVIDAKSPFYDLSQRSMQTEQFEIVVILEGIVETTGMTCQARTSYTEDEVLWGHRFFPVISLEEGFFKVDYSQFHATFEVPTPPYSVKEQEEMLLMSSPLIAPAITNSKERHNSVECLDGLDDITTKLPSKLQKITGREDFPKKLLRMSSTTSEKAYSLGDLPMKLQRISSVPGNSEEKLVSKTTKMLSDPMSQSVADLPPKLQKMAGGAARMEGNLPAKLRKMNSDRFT
Chain of Kir3.1/Kir3.4 channel (P48544 whole entry, chain 2 of 2, further chain): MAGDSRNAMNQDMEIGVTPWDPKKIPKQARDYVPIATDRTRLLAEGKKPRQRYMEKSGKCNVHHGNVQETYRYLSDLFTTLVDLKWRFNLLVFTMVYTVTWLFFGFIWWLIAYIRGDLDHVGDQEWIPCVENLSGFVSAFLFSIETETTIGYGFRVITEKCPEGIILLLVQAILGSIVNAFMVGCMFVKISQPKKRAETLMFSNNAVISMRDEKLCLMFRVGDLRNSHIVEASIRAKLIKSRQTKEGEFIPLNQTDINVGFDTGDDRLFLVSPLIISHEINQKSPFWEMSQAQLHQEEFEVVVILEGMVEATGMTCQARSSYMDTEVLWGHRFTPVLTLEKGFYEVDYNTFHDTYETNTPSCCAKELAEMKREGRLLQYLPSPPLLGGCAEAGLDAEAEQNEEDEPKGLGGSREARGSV

Substance	IKACh block, patch clamp, dose response curve (Kir3.1/Kir3.4 channel [1])	median fluorescence (Kir3.1/Kir3.4 channel [2])	IC50 (Kir3.1/Kir3.4 channel [3])
TertiapinQ (peptide)	70 nM		
TertiapinQ labeled with ATT0633 (peptide)		3840 A.U.	11 nM
TertiapinQ peptibody (Fc fusion)	16 nM		
